Measurements reported in the domain aggregation screens of Martell et al. (2025).

Assay: soluble fraction after stress (log2 fold change); higher = more stays soluble; pooled small domains, quantitative proteomics
Conditions: stress: pH 4
How it was run: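 Pooled custom libraries of small protein domains were subjected to pH 4 and measured by high-throughput quantitative proteomics. The log2 fold change in soluble amount per domain is reported, higher values meaning more remained soluble. This is used as a measure of aggregation propensity.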

Row | Sequence | soluble fraction (log2)
1 | HMTDLDVAVTMTVALEEAVNGATRRVRLPNGKELNVKIPAGVAAGQQIRLKGQGETAPGHRPGDVLITVNI | -0.626
2 | HMAVKYTKDDFLYTEKPYEAIYDYKNDPFMHNLKIEQMAQQAAEVGVKTFKGLYKNYVKMREMQRGANV | 0.0966
3 | HMQQIAVDLSEFKPRLMRDMSSMLAGLYTHDLDLSSLDFSKVANFTFMFRGAIITGTLKMPKI | 0.109
4 | HMQNSYSVEDLALKAGLSVDTIRYYQGLDLIAPPQKNGRRAIYGDEHLSRLDEIKKLALEGFSLRQISLLK | -1.02
5 | HMNVRRSRTHEKVTTYQGYDIFINKEPNQRGMFTSAPMRGDNEYSNLRGEGKSKQDAVNMTKEKIDEIAA | 0.229
6 | HMNPLPALLRYFRQKAGLTQQDVAAALSISRSGYANYEEGRNIPNIEQAIKLSELLNHDFLYAYTLSS | -0.749
7 | HMGYGEQEQEAQKYLALHALMSQDPTLAKMYQAPNQYKLMSHVMEQNGIKNVNDYLTDPQQLP | -0.161
8 | HMVTNELFGTRLRAFRKEKGLTIEQLAERVGLSPNYLGDIERGKKLPSMATFIRLVNELDISADEL | 0.174
9 | HMYKIDFAEGDRVIIKGGAFSGLRATVVSLHPEKGMAKIKVYMFGDRETLVDIEVSQLEKDK | 0.113
10 | HMTSKTLSAVEGEGLRLDKFLSNQLPELSRTKIQKMINDGLVFVNNTEAKASLILDGSEFIAYTVPD | -0.0789
11 | HMTNEWRKILSNLNGKYQIVMELFYVDGFSTKEIARMLHITEVNVRSRMVRGRKQLEQILTVR | 0.0998
12 | HMPFGIYGGKVSSLDDLKDKAAVLVPNDVSNEARALLLLEAQGLIKLKEGVGLEATRNDIVEN | -0.0596
13 | HMIGRIKGQLIEKKSDSVVIDVHGIGYVVYVTEKTARSLTLGDQSRDISLYSELLVKEDLLQLVGFI | -0.0095
14 | HMLVATFGPTTGWEGREIIWDVDRFILVGHGAVPAAGVLDYDRRGQLIWAQPELRAWVVEVDRWETG | -1.61
15 | HMIFTPNGDRVNDVFEIEMGVKLEFQIIILNQQNQTVFKSADPDFKWDGTMLNGEPAPSGTYLYYFSAKD | 0.22
16 | HMGAKEHLAGETLRMAVELLSEKQGIPAEQALIRFISSPVYDALYDLDTGMWTQGPTRLLEAFEALE | -1.69
17 | HMTSEVLTNATIVKMVKAKLSDDIIIDEINNARVNFDVSPEGIKSLTAQNVTEPVIETMKKAVAAQESI | 0.428
18 | HMRMTKQRQAVLDELTRVTDFRSAQQIFEDLHSQGHRVGLATIYRSLQGLAEDGSVDTLRSSDGESLY | -0.169
19 | HMTVGEKIQKYRKDLDLSQEELGQKLLVSRQTISLWEKDQTVPTIDNLIRLREIFGVSVDEILGF | -1.69
20 | HMEFENIEQRKQYWSDLYRELKAGQDAYAKELKKGTEGYTQDELDILKEFTDEAKKQMEAAGVEATDEFAS | -0.176
21 | HMIQTKKVTFTVEPTVNFEKINISGIEFKINSGSSITAIYEKNSHNFDEVLDFLKQKGVKILDIVTED | -0.824
22 | HMTTGLETYPGKIAVVSDDFIDGEGRVQLDGALWRAKTKDHQQLKQGDHVTIVNVKGLTLTVMPDD | -0.0405
23 | HMSPDTREAILAAARTAFARDGYQTSLRGIARDAGVDPALVHHYFPDRATLFAKAVIESTAG | -0.047
24 | HMDLIEVLAQDTIKKIYNTYVAYKNKVDVFYVAFSGGKDSIVTLDLVQRTLPHNEFKVLFGDTGM | -0.48
25 | HMNENFPYRLKEMVVVQSRTWPGINKPGGVGQVMKINPEAGTVNVKYVLGGSEKNIELKYVTSNDLNSK | 0.063
26 | HMKKKLPRYLQEQKYGNGMVFYRYNPTARYIDEGIVTRTNLGSDLSIAKKKANEFNKLIDAFLQQQSE | -0.0245

Row | Sequence | soluble fraction (log2)
27 | HMQENKVLEGKVLEKKKKKVFVDLSPFGVGVIRGVNYLEAKNELKDIEEGDNIKVRVLEIDNENGFIELAL | -1.13
28 | HMKSISMSKLRHLLQLYVQGRSKKLISEQTGIARNTLKKYIKEFSEAGLSLEALLALSDKELEDLFVK | 0.282
29 | HMLSKGDRVSWDTPQGRTQGEVVEKKTKDFEHDGQKFTASDDDPAFIVKSEKSGAEAAHKGSALNK | -0.0554
30 | HMEKPYTPPANLNEIQSYEELSKAVQYYNKVKDAATTDADRLKAQQSIDTLEDMRKAWDAASST | -0.312
31 | HMTAIKAGDLVKITGTKYYGGQTIPGWVKNQNWYVQEVSGDRAVINKNESGTNAIMSPIRVSDLTPVS | -0.0468
32 | HMPGSGELSRRLELAIRDRTAVRVTAAAAGQERSFTLLPVAITSGRLRATDEQAGVQRTLPLSAIVAVEA | -0.135
33 | HMEDSAKRHQIMDGARRVFMDLGFDGASMNEIARAAGVSKGTLYVYFTDKNRLFEAIVEQESL | -1.15
34 | HMTPEPVREALTFQEGRVFALAAKNMTNAEIAQSLSLKLKTVENYMSIIYQKLALKNRYELLVYARKSGV | -0.117
35 | HMSAQQTFLRDAMRRLNMTRDSFAERIGVRRRALDTWLLPEDSSEYRTMPSIVEKFVGEILGREA | 0.112
36 | HMTVAQEIEARRATIRSSDPAEMARFIRWLIMEGHTEPAADELKKYAENFPEASATTKQLQALLAAR | 0.147
37 | HMGEPTLTIRVVSYNPQSGEMVVVARDPLSGRYALATLNVRTGAGQMIGPQGELLPIENFALGS | -0.692
38 | HMGRMTRKDRALATDLYGRIVGNVDDFHEGRIDYETFSERQRGLWTTLDAAGPEVKRAVLADIRERL | 0.23
39 | HMDTSADEVKQLIASFVEQEDKRKPLSDQKIVELLAEKEQKISRRTVAKYRDALNIPSSSKRKRF | -0.141
40 | HMDRVMPVPEALIGMRFDIAVSRMLGVSRSQAAAYIDRGQVSIAGRGSQRSAQKSEKLVQGDSIEVAIA | 0.186
41 | HMGKNYYEILGITKSASEEQVRKAFRGLAMEWHPDRNRSADSEERFKEINEAYQVLIDPKKRQMYDQYGR | 0.349
42 | HMKVRDTQYIIEAAISKNVIRKSKNIYYYGTDIIGRSLEDAIASLNDKKNQDIKMTILQEIES | 0.0993
43 | HMTVGEAHLEEVYLKVLKQVEEQGTALIRTTDVETGRPAAGIRRRYMRGTLPDEWVAKFEALPGWTWAPG | -0.952
44 | HMPAKIIKKSFVYNPIHRDTEYLAQFLQGEGQVSASGDKLVYYGTVEDISRIKSVLQSVDTPS | -0.434
45 | HMDQILIHLKEGIDVTDVQPMLKALDLNVRMFNRDKNIIVISVLNRELDAIPQTIAALRPWEELFDSA | -0.184
46 | HMGGLSAEQKNGIQSVLKNFDPKNLTSADAKSITSEFKKLGVQPGKDLETTMAASGFDAKEVGRLAF | 0.177
47 | HMKLINEDLNNEIVFEENKVNLLVIENKKKFVQFIQEIIKQINGDEGKFSLFDINTELKIHDKIDII | -0.0802
48 | HMINDKLQHLFSLFPAMDKELKRKGITRQILWVEYKKQYPLGFGRSQFNSYFAAWKAQVSPS | 0.204
49 | HMSGYFSDKKLNELFEQYLIMREKKGKPVVGYQLKILIDRLNQVAANTKEKIEVVSNAIAGDWNTFYPIKR | 0.0685
50 | HMKITIDSVERDETFRLIWGTGWKPKNKIQELAAIQAKKNGLGRMNEVAGLAAWRGIWQQVAEQVAQEVL | -0.843
51 | HMLPDVSITGHIFIRSGSRLNRIFVGESTYHVGDMLDGKWLIESINSDSLELRSGTQTTELPL | -0.066
52 | HMQAGPEDIIRAKLKTAMPEAQIISIRPTPAGLYQVNAKGYESVFVTADGRYLFQGDLLEIQGDRIVNL | -0.714

Row | Sequence | soluble fraction (log2)
53 | HMDPVATLTPREREVLELMAEGRTNAGIAEAMVVTEGAVEKHIQRIFAKLGLHADGGVHRRVAAVLALLG | -0.872
54 | HMPTITSPMVGTFYRAPSPGAAPFIEVGDTVKKGQVIGIIEAMKLLNEVEADKDGVVQAFAAENGEL | -0.681
55 | HMNGSVLVTGGSVWIRAGASKETDGLGIVHKGDVLKRSGSDASGWRGVVYEGQNAFISAKYSSI | 0.424
56 | HMKVSKNKIVKGMGFHHVALKAVDFDASFKFYTEGLGMKFYTSWGEGNGKIAMLDLGDGGILELFA | 0.22
57 | HMQGWREWDYSADLYINARVGGKIEPTENSPISRVYELDEPVSVVAFTSTRYFKLSSGDYIFAEYLSAQKV | -0.18
58 | HMTGEDIKKVILREYAREKSLLSIFHELSKVNSNVTLEVIKDIITNIDKLPNDLLQYFKEESSFYQKNKN | -1.35
59 | HMKNEVENLSYMINRIIEYRDLNNLSNKNLANKIGISEALLSYILNGRRKLSKEIQRKIALFLLND | -0.337
60 | HMIPDGKWKEDPISDGQKNFINSLIEQAIDAGQDELGAEAKKYLASGEATKGNASAMIDKLKSAL | 0.398
61 | HMIDEQDLKKYILISTSVEELTDYLGATDRMLYDYLYSLKHVGQYWQLNERFLLDLYKLPNLVIVDKEDLE | -0.351
62 | HMERPEVVAYRLAYASAESLRPALGLVASPSDLEIDERTNTLIVRAVPSVQERVAELVASLDI | -0.889
63 | HMEEPEELYRVKILIYNLLVRNGPGILYTRLRRADYPGEYGIYEEKNGYGKISATLSEWISLNTEYVQRLD | -0.378
64 | HMSGKWKIRILWYIAEYEVQRFGELRRRLGDITQSTLTEQLRELEQDGFVSRYVYQEVPSKVEYSLTE | -0.0562
65 | HMQLVPGIGRLSARELEVFTLIGRGLGTSEIGKKLGVSAYTVQTHRNHIKEKLNLPNAAAITYWAIQWAHG | -0.338
66 | HMEQIETIFLSAAPYARTHIIHLLETSELFRDKYLTIVETSNGLLIYTEDKNRLLGILNSLT | -1.24
67 | HMKSLVDLEISIVKKDMNYFVLPKINGEPLLMERISASEYKDFQLGKLSKEDIFQKHYPDYSEENIKNGRG | 0.19
68 | HMSENKIMEIVQDLAREKSVILISHRLANVTAADKILYMEQGKIAESGTHEQLMAQNKAYAALFNKQQEL | -0.0418
69 | HMNLQGIISQKAIVTQTIEPYETGVAKLNGEEWTAMSKDETRIEAGKLVEVVAIEGVKLIVKEVS | -0.295
70 | HMTKLLSALQADKFAKKLANDTNFGSNFARMGESAMDFTNRLVEELQRDEGKVANYMPYLTKLGF | -0.305
71 | HMTNATVGQIKKLARASILYGNSNLSGNRYTYKANTTVTILQNISSNVDKIRVNVTGRVAYIDNSNYSSST | 0.34
72 | HMIKSEERIQNIKEYILEFQFTYHRTPTMAQIAEAVGTVKSNVYKYLSEMEERGILTRNKREIEINDTIQ | -0.588
73 | HMTEISGIEKFLASGAINGIGPAMAKKIVAEFGEKTLEIIAKSPNELLKVPGIGKKTAEKISTSYLEQ | 0.0637
74 | HMVTGSIYERKGIYYAIVSYYVDGRRKQKSVSTGLSVKGNKRRALEFLENLKRTYETKESMENMD | ≥ 0.43
75 | HMKSSISKNWNPSKDAIEILTRAGIDQEFLENLIPEFVIYWIERSDVLISYNSKFIEHARLKWAQHTAEIQ | -0.106
76 | HMQIAEAESLGQRLLQQSINNIVGRDEAITEERLNRVLSQYSLTGRDELMAQIGLGNRNSSLVAKAMYDI | -0.35
